Reference: publication PMC6089408

Biological target: Arabidopsis thaliana HAPLESS 2 ectodomain (AtHAP2e; aa 25-494) (Arabidopsis thaliana) (UniProt F4JP36)
Experiment: crystal structure; AtHAP2e set to crystallize as a monomer; hanging drop, 293 K, 100 mM sodium citrate pH 4.5, 200 mM zinc acetate; space group P6_(3)

stoichiometry N: 3
Substance: Arabidopsis thaliana HAPLESS 2 ectodomain (AtHAP2e; aa 25-494) (from UniProt F4JP36 25-494) (domain or fragment)
